The experiment deals with SNAP 25 (endogenous, rat neuronal cells) (rat) (UniProt P60881). The experiment is described as follows: cell-based or functional assay.

The values that follow come from patent US20110206616A1.

UniProt P60881, sequence (P60881 whole entry): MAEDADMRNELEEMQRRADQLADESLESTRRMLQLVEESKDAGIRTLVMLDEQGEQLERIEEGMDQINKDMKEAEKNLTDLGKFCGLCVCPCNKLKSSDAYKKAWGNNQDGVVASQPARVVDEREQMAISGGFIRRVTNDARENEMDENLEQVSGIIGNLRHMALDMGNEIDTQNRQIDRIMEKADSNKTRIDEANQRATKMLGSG

For the substance “BoNT/Aad^ek, AcTEV- and enterokinase-processed disulfide-bonded LC-HC heterodimer (from UniProt P0DPI1 2-449; P0DPI0 449-1296)”, the cleavage of intracellular SNAP 25 (none detectable at the concentration tested) is 500 nM.
